# Source: US20260297205 (published 2026)
# Where a chain is given by its changes, count along the chain named.
# B1: GH35 (antibody, V domains shown)
# VH: EVQLVESGGGLVQPGGSLRLSCAASGFNVYYSSIHWVRQAPGKGLEWVASIYSYSGYTSYADSVKGRFTISADTSKNTAYLQMNSLRAEDTAVYYCARWSYKAMDYWGQGTLVTV
# VL: DIQMTQSPSSLSASVGDRVTITCRASQSVSSAVAWYQQKPGKAPKLLIYSASSLYSGVPSRFSGSRSGTDFTLTISSLQPEDFATYYCQQDYYAPITFGQGTKVEIKR
# B2: GH21 (antibody, V domains shown)
# VH: B1 VH with Y30S, Y31S, S33Y, W99Y, S100M, K102Y
# VL: B1 VL with D91S, Y92S, Y93W, A94S
# B3: GH4 (antibody, V domains shown)
# VH: EVQLVESGGGLVQPGGSLRLSCAASGFNVSSSYIHWVRQAPGKGLEWVASIYSSYGYTSYADSVKGRFTISADTSKNTAYLQMNSLRAEDTAVYYCARESWGSGYYTWAMDYWGQGTLVTV
# VL: B1 VL with D91S, Y92W, Y93R, A94Y, I96F
# B4: GH33 (antibody, V domains shown)
# VH: EVQLVESGGGLVQPGGSLRLSCAASGFNFYSSYIHWVRQAPGKGLEWVASIYSYSGYTSYADSVKGRFTISADTSKNTAYLQMNSLRAEDTAVYYCARYWYYYNGMDYWGQGTLVTV
# VL: B1 VL with D91I, Y92R, A94V
# B5: GH1 (antibody, V domains shown)
# VH: EVQLVESGGGLVQPGGSLRLSCAASGFNFYYSSIHWVRQAPGKGLEWVAYIYSYSGYTSYADSVKGRFTISADTSKNTAYLQMNSLRAEDTAVYYCARYSWWGGMDYWGQGTLVTV
# VL: B1 VL with D91S, Y93S, A94V
# B6: GH11 (antibody, V domains shown)
# VH: EVQLVESGGGLVQPGGSLRLSCAASGFNIYSSSIHWVRQAPGKGLEWVASISSSSGSTSYADSVKGRFTISADTSKNTAYLQMNSLRAEDTAVYYCARKYSGYYSNWYYPALDYWGQGTLVTV
# VL: B1 VL with D91S, Y92S, Y93S, A94S, P95L
# B7: GH22 (antibody, V domains shown)
# VH: B5 VH with Y30S, Y31S, S33Y, Y50S, S100R, W101F, W102I, G104A
# VL: B1 VL with D91S, Y92H, Y93W, A94S
# B8: GH15 (antibody, V domains shown)
# VH: B4 VH with F29V, Y30S, Y99T, W100S, Y102G, Y103R, N104G, G105A, M106L
# VL: B1 VL with D91W, Y92S, Y93W, A94Y
# B9: GH32 (antibody, V domains shown)
# VH: B1 VH with V29F, Y31S, S33Y, W99Y, S100K, K102M, A103G
# VL: B1 VL with D91S, Y92S, Y93W, A94M
# B10: GH3 (antibody, V domains shown)
# VH: EVQLVESGGGLVQPGGSLRLSCAASGFNVSSSSIHWVRQAPGKGLEWVAYISSYYGYTSYADSVKGRFTISADTSKNTAYLQMNSLRAEDTAVYYCAREGWYWWAMDYWGQGTLVTV
# VL: B1 VL with D91A, Y92W, A94L
# B11: GH2 (antibody, V domains shown)
# VH: EVQLVESGGGLVQPGGSLRLSCAASGFNVSSSYIHWVRQAPGKGLEWVASIYSYYGYTSYADSVKGRFTISADTSKNTAYLQMNSLRAEDTAVYYCARENYGNWRSMYSGMDYWGQGTLVTV
# VL: B1 VL with D91S, Y93F, A94L, I96F
# B12: GH12 (antibody, V domains shown)
# VH: EVQLVESGGGLVQPGGSLRLSCAASGFNLSSSYIHWVRQAPGKGLEWVASIYPYSGYTSYADSVKGRFTISADTSKNTAYLQMNSLRAEDTAVYYCARMYWTGALDYWGQGTLVTV
# VL: B1 VL with D91S, Y92S, A94S
# B13: GH5 (antibody, V domains shown)
# VH: B10 VH with S32Y, S33Y, Y50S, S52Y, E99G, G100D, W101N, W103S
# VL: B1 VL with D91S, Y92W, Y93Q, A94Y, I96F
# B14: GH34 (antibody, V domains shown)
# VH: B1 VH with V29F, Y30S, S53P, Y54S, S55Y, W99Y, S100Y, K102F, A103G
# VL: B1 VL with D91S, Y92W, Y93S, A94M, I96L
# B15: GH16 (antibody, V domains shown)
# VH: EVQLVESGGGLVQPGGSLRLSCAASGFNLSSYYIHWVRQAPGKGLEWVASIYPSYGYTSYADSVKGRFTISADTSKNTAYLQMNSLRAEDTAVYYCARWGKWYGYPFSGLDYWGQGTLVTV
# VL: B1 VL with Y92W, A94F
# B16: GH24 (antibody, V domains shown)
# VH: B10 VH with Y50S, S52Y, Y54S, E99G, G100D, W101R, W103V
# VL: B1 VL with D91S, Y92S, Y93S, A94Y, I96F
# B17: GH13 (antibody, V domains shown)
# VH: EVQLVESGGGLVQPGGSLRLSCAASGFNFSSSSIHWVRQAPGKGLEWVASISSYYSSTYYADSVKGRFTISADTSKNTAYLQMNSLRAEDTAVYYCARQYTSPWHWYKAMDYWGQGTLVTV
# VL: B1 VL with D91S, Y92S, Y93S, A94S, P95L
# B18: GH6 (antibody, V domains shown)
# VH: B10 VH with S31Y, Y50S, S52Y, Y54S, E99G, G100H, W101G, Y102S, W103M
# VL: B1 VL with D91S, Y92W, Y93S, A94L, I96F
# B19: GH38 (antibody, V domains shown)
# VH: B3 VH with S30Y, Y33S, S53P, E99W, S100H, S103W, Y105S, T107G, A109G
# VL: B1 VL with D91Q, Y92W, A94V
# B20: GH7 (antibody, V domains shown)
# VH: B4 VH with F29V, Y33S, Y99G, W100R, Y102S, Y103W, N104F, G105A, M106L
# VL: B1 VL with D91Y, Y92W, Y93S, A94F
# B21: GH20 (antibody, V domains shown)
# VH: B1 VH with Y30S, Y31S, S33Y, W99Y, S100K, Y101W, K102Y
# VL: B1 VL with D91S, Y92S, Y93W, A94Y
# B22: GH14 (antibody, V domains shown)
# VH: B5 VH with Y31S, Y50S, S55Y, Y99S, S100G, W101G, W102Y, G103I, M105F
# VL: B1 VL with D91Y, Y92W, Y93E, A94Y, I96F
# B23: GH19 (antibody, V domains shown)
# VH: B1 VH with V29F, Y30S, S33Y, W99Y, S100K, Y101W, K102W
# VL: B1 VL with D91S, Y92G, Y93S, A94W
# B24: GH23 (antibody, V domains shown)
# VH: B1 VH with Y30S, Y31S, S33Y, W99F, S100W, Y101V, K102W
# VL: B1 VL with D91S, Y92S, A94I, I96L
# B25: GH25 (antibody, V domains shown)
# VH: EVQLVESGGGLVQPGGSLRLSCAASGFNFSYYSIHWVRQAPGKGLEWVASISSYYGYTSYADSVKGRFTISADTSKNTAYLQMNSLRAEDTAVYYCARYFLGMDYWGQGTLVTV
# VL: B1 VL with D91Y, Y92R, A94P
# B26: GH9 (antibody, V domains shown)
# VH: B1 VH with Y31S, S33Y, W99H, Y101S, K102W
# VL: B1 VL with D91S, Y92S, Y93F, A94V, I96L
# B27: GH41 (antibody, V domains shown)
# VH: EVQLVESGGGLVQPGGSLRLSCAASGFNFSSSSIHWVRQAPGKGLEWVASISPYSGYTSYADSVKGRFTISADTSKNTAYLQMNSLRAEDTAVYYCARGYGGWYWWYTFAFDYWGQGTLVTV
# VL: DIQMTQSPSSLSASVGDRVTITCRASQSVSSAVAWYQQKPGKAPKLLIYSASSLYSGVPSRFSGSRSGTDFTLTISSLQPEDFATYYCQQSSSSELLTFGQGTKVEIKR
# B28: GH10 (antibody, V domains shown)
# VH: EVQLVESGGGLVQPGGSLRLSCAASGFNFYSSSIHWVRQAPGKGLEWVAYISPYSGYTSYADSVKGRFTISADTSKNTAYLQMNSLRAEDTAVYYCARIAYKWYMPYYYGMDYWGQGTLVTV
# VL: B1 VL with D91S, Y92L, Y93S, A94S, P95L, I96V
# B29: GH18 (antibody, V domains shown)
# VH: B5 VH with Y31S, S33Y, Y50S, S100K, W101E, W102P, G103F
# VL: B1 VL with D91S, Y92N, A94M, I96L
# B30: GH42 (antibody, V domains shown)
# VH: EVQLVESGGGLVQPGGSLRLSCAASGFNFSSSYIHWVRQAPGKGLEWVASISSSSGSTSYADSVKGRFTISADTSKNTAYLQMNSLRAEDTAVYYCARSPWYVYWYFGSALDYWGQGTLVTV
# VL: B1 VL with D91S, Y92S, Y93S, A94S, P95L
# Molecular target: human growth hormone (GH) (human, UniProt P01241)
# Sequence (P01241 27-217): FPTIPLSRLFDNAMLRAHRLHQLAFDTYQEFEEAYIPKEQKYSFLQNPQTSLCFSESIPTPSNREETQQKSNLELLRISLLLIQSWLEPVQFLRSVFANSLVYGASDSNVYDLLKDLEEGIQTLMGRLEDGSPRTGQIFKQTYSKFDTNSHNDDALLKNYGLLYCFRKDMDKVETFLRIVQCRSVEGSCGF
# Assay: SPR, 20C
row,Binder,Kd
1,B1,14 nM
2,B2,7.5 nM
3,B3,5.4 nM
4,B4,5.8 nM
5,B5,1.5 nM
6,B6,0.3 nM
7,B7,1.1 nM
8,B8,3.9 nM
9,B9,17 nM
10,B10,21 nM
11,B11,0.9 nM
12,B12,0.08 nM
13,B13,4.9 nM
14,B14,20 nM
15,B15,3.4 nM
16,B16,1.3 nM
17,B17,0.3 nM
18,B18,0.04 nM
19,B19,8.1 nM
20,B20,6.1 nM
21,B21,1.9 nM
22,B22,0.7 nM
23,B23,5.9 nM
24,B24,0.17 nM
25,B25,0.14 nM
26,B26,18 nM
27,B27,2.6 nM
28,B28,3.6 nM
29,B29,12.5 nM
30,B30,2.2 nM
